Measurements as given in patent US20030124664.

Target: human growth hormone (hGH) with the N-terminal phenylalanine, expressed and secreted from plasmid phGH4R, P01241
Sequence (P01241 27-217): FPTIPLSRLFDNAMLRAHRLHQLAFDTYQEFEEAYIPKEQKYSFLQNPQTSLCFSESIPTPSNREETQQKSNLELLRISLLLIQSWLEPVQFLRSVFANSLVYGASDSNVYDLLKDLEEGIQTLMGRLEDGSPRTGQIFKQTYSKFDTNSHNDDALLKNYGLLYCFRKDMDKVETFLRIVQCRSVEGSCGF

B1: native-sequence aminopeptidase b2324 (product of the E. coli chromosomal yfcK gene) (protein)
chain: MRSLTHIAKIEPPPVRRVTYVKHYSIQPANLEFNAEGTPVSRDFDDVYFSNDNGLEETRYVFLGGNQLEVRFPEHPHPLFVVAESGFGTGLNFLTLWQAFDQFREAHPQAQLQRLHFISFEKFPLTRADLALAHQHWPELAPWAEQLQAQWPMPLPGCHRLLLDEGRVTLDLWFGDINELTSQLDDSLNQKVDAWFLDGFAPAKNPDMWTQNLFNAMARLARPGGTLATFTSAGFVRRGLQDAGFTMQKRKGFGRKREMLCGVMEQTLPLPCSAPWFNRTGSSKREAAIIGGGIASALLSLALLRRGWQVTLYCADEAPALGASGNRQGALYPLLSKHDEALNRFFSNAFTFARRFYDQLPVKFDHDWCGVTQLGWDEKSQHKIAQMLSMDLPAELAVAVEANAVEQITGVATNCSGITYPQGGWLCPAELTRNVLELAQQQGLQIYYQYQLQNLSRKDDCWLLNFAGDQQATHSVVVLANGHQISRFSQTSTLPVYSVAGQVSHIPTTPELAELKQVLCYDGYLTPQNPANQHHCIGASYHRGSEDTAYSEDDQQQNRQRLIDCFPQAQWAKEVDVSDKEARCGVRCATRDHLPMVGNVPDYEATLVEYASLAEQKDEAVSAPVFDDLFMFAALGSRGLCSAPLCAEILAAQMSDEPIPMDASTLAALNPNRLWVRKLLKGKAVKAG
N-terminal cleavage of hGH in crude lysate (LC-MS), yfcK deletion strain against control: virtually no phenylalanine-cleaved impurities after 15 hours of incubation at 37 °C
